± gives the standard deviation.
Experiment: protein stability index of a GFP-peptide fusion (GPS, HEK-293T) (PSI 1-6); higher = more stable
[1] = treatment: DMSO, c terminus: a fixed tail appended
[2] = treatment: MLN4924 1 uM, 8 h, c terminus: a fixed tail appended
[3] = treatment: DMSO, c terminus: native
[4] = treatment: MLN4924 1 uM, 8 h, c terminus: native
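Also: 24-mer peptide tiles fused after GFP, lentivirally expressed, FACS-sorted into six equal bins by GFP/DsRed ratio, decoded by Illumina sequencing, PSI is the read-weighted mean bin number.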

What does the source list for AGALLRLPSERLDFSMAEALNQEF [PRPH]?
protein stability index [1]: 3.32 ± 0.3; protein stability index [2]: 3.52 ± 0.35

For RLLRFSSQIHNNGQSDFRPKNGRH [LOXL2], which protein stability index [1] is on record?
Its protein stability index is 3.2 ± 0.41.

What about the protein stability index [2] of the same sequence?
Its protein stability index is 3.42 ± 0.81.

Which protein stability index [1] does the source give for LTVVSFYQVAALQGDLASLRAELQ [TNFSF13B] here?
The protein stability index was 2.77 ± 0.7.

What about the protein stability index [2] of the same sequence?
The protein stability index was 2.63 ± 0.68.

Which protein stability index [1] does the source give for SPRDEYKPLDLSDSTLSYTETEAT [SMAD6] here?
Its protein stability index is 5.45 ± 0.24.

And the protein stability index [2]?
Its protein stability index is 5.41 ± 0.23.

With MLFFLPPGQHLSDYSQLNESTTKE [FBXO34] as the sequence, how does the protein stability index [1] read?
Its protein stability index is 2.6 ± 0.25.

And the protein stability index [2]?
The protein stability index was 2.61 ± 0.24.

For PQARMREENMERIGEEVRQLMEKL [BEX1], which protein stability index [1] is on record?
Its protein stability index is 4.51 ± 0.33.

What about the protein stability index [2] of the same sequence?
Its protein stability index is 4.52 ± 0.23.

Which protein stability index [1] does the source give for LQGAASHVPEGFDPTGPAGLGRPT [EHMT1] here?
Its protein stability index is 4.54 ± 0.2.

What about the protein stability index [2] of the same sequence?
Its protein stability index is 4.58 ± 0.14.

Which protein stability index [1] does the source give for FCGAPPVTPIIVLSIINFFERLCL [PHTF1] here?
The protein stability index was 2.87 ± 0.47.

And the protein stability index [2]?
The protein stability index was 2.5 ± 0.46.

Which results are given for LHSLPGVSLSLENRELWKEFSSVG [TBX6]?
protein stability index [1]: 2.73 ± 0.19; protein stability index [2]: 2.83 ± 0.37

What does the source list for YFAIKQEVVTPDNMCMGRTSRGKL [ETS1]?
protein stability index [1]: 3.5 ± 0.23; protein stability index [2]: 3.49 ± 0.22

What does the source list for TQYFVQENYLEYRQVPGSDPACYE [MAGEA6]?
protein stability index [1]: 3.34 ± 0.29; protein stability index [2]: 3.59 ± 0.38

Which protein stability index [1] does the source give for SVLLSWEIPENYNSAMPFKILYDD [PTPRD] here?
The protein stability index was 1.88 ± 0.26.

What about the protein stability index [2] of the same sequence?
Its protein stability index is 2.29 ± 0.22.

With VDQKLELNIVPRTKVVYLASETFN [PI4K2A] as the sequence, how does the protein stability index [1] read?
The protein stability index was 2.38 ± 0.23.

What about the protein stability index [2] of the same sequence?
Its protein stability index is 2.51 ± 0.25.

With GRGSLSSGGQTSWDSGCLAPPSTR [PLEKHN1] as the sequence, how does the protein stability index [1] read?
Its protein stability index is 4.44 ± 0.24.

What about the protein stability index [2] of the same sequence?
The protein stability index was 4.15 ± 0.35.

With PQLASLCLDTIDKSTMDAISAEGF [BTBD1] as the sequence, how does the protein stability index [1] read?
The protein stability index was 3.98 ± 0.16.

And the protein stability index [2]?
Its protein stability index is 3.99 ± 0.057.

What does the source list for VELLLSHADCDRRSRIEALELLGA [FEM1B]?
protein stability index [1]: 2.7 ± 0.19; protein stability index [2]: 2.78 ± 0.21

Which results are given for YQETMVESTFMYLTLDLPTAPLYK [USP39]?
protein stability index [1]: 2.36 ± 0.52; protein stability index [2]: 2.28 ± 0.21

With IISKPVPQTLIMAYDYAKEVNSAE [FEM1C] as the sequence, how does the protein stability index [1] read?
Its protein stability index is 2.93 ± 0.34.

And the protein stability index [2]?
Its protein stability index is 2.81 ± 0.16.

Which protein stability index [1] does the source give for SLSHINAYACLVCGKYFQGRGLKS [USP39] here?
Its protein stability index is 2.14 ± 0.39.

And the protein stability index [2]?
The protein stability index was 2.07 ± 0.42.

Which results are given for SLEHVQLFDLMRRMLEFDPAQRIT [CLK3]?
protein stability index [1]: 2.31 ± 0.29; protein stability index [2]: 2.07 ± 0.36

With IEKTGGVEAVKNELRRQAPPPPPP [WASL] as the sequence, how does the protein stability index [1] read?
Its protein stability index is 4.492 ± 0.027.

What about the protein stability index [2] of the same sequence?
The protein stability index was 4.46 ± 0.58.

For EGELGEYRQKLLMFLEISSYYDPG [VPS39], which protein stability index [1] is on record?
Its protein stability index is 2.19 ± 0.22.

What about the protein stability index [2] of the same sequence?
The protein stability index was 2.18 ± 0.28.

For ISKNKKKASNSIISCFNNAPPAKL [FAN1], which protein stability index [1] is on record?
The protein stability index was 3.36 ± 0.21.

And the protein stability index [2]?
Its protein stability index is 2.79 ± 0.31.

Which protein stability index [1] does the source give for AQTLAMMLQEQLDAINEEIRMIQE [PPFIA4] here?
Its protein stability index is 2.95 ± 0.29.

And the protein stability index [2]?
The protein stability index was 2.7 ± 0.46.

For CAHCRAHLANHDDLISKSFQGSQG [YPEL3], which protein stability index [1] is on record?
The protein stability index was 2.45 ± 0.34.

And the protein stability index [2]?
The protein stability index was 2.74 ± 0.24.

What does the source list for GFVDLLDGENLKNEEETPSCMASL [CDC25A]?
protein stability index [1]: 4.64 ± 0.25; protein stability index [2]: 4.62 ± 0.13

With AGGHLAVVELLLAHGADPTHRLKD [ANKRD17] as the sequence, how does the protein stability index [1] read?
Its protein stability index is 1.95 ± 0.18.

What about the protein stability index [2] of the same sequence?
The protein stability index was 2.11 ± 0.32.

With CSSKRSSIPLMGFEFEVRVCDSCH [WDFY2] as the sequence, how does the protein stability index [1] read?
Its protein stability index is 2.24 ± 0.39.

What about the protein stability index [2] of the same sequence?
Its protein stability index is 2.15 ± 0.34.

Which protein stability index [1] does the source give for KERLKPAHIHLQQLTCFSITCSST [KRT34] here?
The protein stability index was 2.1 ± 0.34.

What about the protein stability index [2] of the same sequence?
The protein stability index was 2.49 ± 0.22.

Which protein stability index [1] does the source give for NSDPEVVNVDNLLAAAVVQEHSNS [C18orf25] here?
Its protein stability index is 5.19 ± 0.35.

And the protein stability index [2]?
Its protein stability index is 5.33 ± 0.2.

Which protein stability index [1] does the source give for HGFLFMIFQIGVLGFGPTYVVLAY [SOAT1] here?
The protein stability index was 2.86 ± 0.85.

And the protein stability index [2]?
Its protein stability index is 2.71 ± 0.8.

Which protein stability index [3] does the source give for RQKVLSLPLPDPLKYYLLYYREK [PCMTD2] here?
Its protein stability index is 2.14 ± 0.18.

What about the protein stability index [4] of the same sequence?
Its protein stability index is 2.46 ± 0.19.

Which protein stability index [1] does the source give for GACPGADEAGGGAEGDSWEEEGFG [WEE1] here?
The protein stability index was 5.35 ± 0.24.

What about the protein stability index [2] of the same sequence?
The protein stability index was 5.54 ± 0.21.

Which protein stability index [1] does the source give for VEKSSPATSLFVELDEEEVKAATT [BCL2L13] here?
The protein stability index was 5.53 ± 0.22.

What about the protein stability index [2] of the same sequence?
Its protein stability index is 5.46 ± 0.2.

Which protein stability index [1] does the source give for KRPAPRTAPRQEKHERTHEIIPIN [SPRY1] here?
Its protein stability index is 4.03 ± 0.18.

What about the protein stability index [2] of the same sequence?
Its protein stability index is 4.2 ± 0.15.

What does the source list for ERIVVAGNNEDVSFSRPADLDLIQ [MFF]?
protein stability index [1]: 4.96 ± 0.075; protein stability index [2]: 4.21 ± 0.32

Which results are given for DECEKAYFYMSCLVKHKRIHSREK [ZNF649]?
protein stability index [1]: 2.69 ± 0.14; protein stability index [2]: 2.9 ± 0.35

Which protein stability index [1] does the source give for CCLVKMESLEPDAQVLMLGQILEL [FANCE] here?
Its protein stability index is 3.04 ± 0.15.

And the protein stability index [2]?
The protein stability index was 2.83 ± 0.48.

Which protein stability index [2] does the source give for RSIFGNAVSRELIEIGCEDKTLAF [MLH1] here?
Its protein stability index is 2.97 ± 0.41.

What does the source list for CRIQDLCAMEDHNCEQLCVNVPGS [MATN2]?
protein stability index [1]: 3.01 ± 0.44; protein stability index [2]: 2.77 ± 0.32

For INGLQAWLLTHLLWFANAHLLSWF [DHCR7], which protein stability index [1] is on record?
Its protein stability index is 3.18 ± 0.3.

What about the protein stability index [2] of the same sequence?
Its protein stability index is 3.07 ± 0.44.

For DFLETPELTSTMLVPASWWILNN [NECAB1], which protein stability index [3] is on record?
The protein stability index was 2.21 ± 0.35.

What about the protein stability index [4] of the same sequence?
The protein stability index was 2.18 ± 0.25.

Which results are given for TTKFTGSHKERFDPSGKGKGKAGR [TPPP]?
protein stability index [1]: 4.83 ± 0.2; protein stability index [2]: 4.93 ± 0.32

What does the source list for VGPLAQDPQSPMAGLRWLDSWDF [POMT2]?
protein stability index [3]: 3.34 ± 0.38; protein stability index [4]: 3.36 ± 0.3

With EVELAYQEAMFNMATLNRTAAGLM [SEPHS2] as the sequence, how does the protein stability index [1] read?
The protein stability index was 2.42 ± 0.46.

What about the protein stability index [2] of the same sequence?
The protein stability index was 2.56 ± 0.68.

Source: the supplement of paper PMC10567573
